# The nanobody polyreactivity screen of Harvey et al. (2022)
# Assay: yeast display, Sf9 membrane polyspecificity reagent, FACS + sequencing; frameworks hold sequencing errors
# Summary of the method: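 Nanobodies came from a synthetic yeast display library in Saccharomyces cerevisiae BJ5465, induced with galactose for 36–48 hours and stained for 1 hour at 4 °C with 10% biotinylated, detergent-solubilized Sf9 membrane reagent. Cells were enriched on streptavidin microbeads and then FACS-sorted, with low and high (top ~1%) gates set on anti-HA fluorescence for expression and streptavidin fluorescence for reagent binding. Each polyreactivity label reflects the gate a clone came from. Genes were amplified by colony PCR, sequenced by MiSeq 2 × 250 and filtered by CDR length.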
row,Sequence,polyreactivity (PSR sort gate)
1,QVQLVESGAGLVQAGGRLRLSCAASGIIFYNYAMGWYRQAPGKERQFVAAISWSGGSTNYADSVKGRFTISRDNAKNTVYLQMNSLKPEDTAVYYCAAEYSGNNYNSDYWGQGTQVTVSS,low polyreactivity
2,QVQLVESGAGLVQAGGSLGLSCAASGFTFRTYAMGWYRQAPGKERELVADISGSGGSTYYADSVKGRFTISRYNAKNTVYLQMISLKPEDTAVYYCAGTIYNWGYERDYWGQGTQVTVSS,high polyreactivity
3,QVQLVESGAGLVQAGGSLRLRCAASGYTLGPYAMGWYRPAPGKERELVAAISWGGGRTYYADSVKGRFTISRDNAKNTVYLQMNSLKPEDTAVYDCAAKWSHVRDGPKYDYWGQGTQVTVSS,low polyreactivity
4,QVQLVESGAGLVQAGGSLRLSCAASGFIFRYYAMGWYRQAPGKERELVARITPRGGRTYYADSVKGRFTISRDNAKNTVYLQMNSLKPEDTAVYYFAAVYPVLHEFGYWGQGTQVTVSS,high polyreactivity
5,QVQLVESGAGLVQAGGSLRLSCAASGFIYEWYTMGWYTQAPGKERELVARISTDGSTTYADSVKGRFTISRDHAKKTVYLQMNSLKPEDTSVYYCAADVTYPGLKYIFDYWGQGTQVTVSS,low polyreactivity
6,QVQLVESGAGLVQAGGSLRLSCAASGGTFESYAMGWYRQAPGTERELVAAISGRGGRTYYADSVKGRFTISRDNAKNTVYLQMNSLKPEDTAVYYCRYWYYRTYYYWGQGTQVTVSS,high polyreactivity
7,QVQLVESGAGLVQAGGSLRLSCAASGITFYTYAMGWYRQAPGKERELVAAITSRTGSTYYADSVKGRFTISRDNAKNTVYLQMNSLKPEDTAVYYCAADRTRGRDGSDYWGQGTQVTVSS,low polyreactivity
8,QVQLVESGAGLVQAGGSLRLSCAASGLIFGTDAMGLYRQAPGKESELVAAITSGGRTYYADSVKGRFTISRDNAKNTVYLQLISLKPEDTAVYYCAAEGWWNDTPYDYWGQVTQVTVSS,low polyreactivity
9,QVQLVESGAGLVQAGGSLRLSCAASGLILGVYTMGWYRQAPGTEREFVASINYGGGSTYYADSVKGRFTISRDNAKNTVYLQMNSLKPEDTAVYYCNARSRWGGTRLYSYDYWGQGTKVTVSS,low polyreactivity
10,QVQLVESGAGLVQAGGSLRLSCAASGLTFEWYAMGWYRPAPGKERELVAAISWNGGSTYYADSVKGRFTISRDNAKNTVYLQMNSLKPEDTAVYYCATSSPRRYYWGQGTQVTVSS,high polyreactivity
11,QVQLVESGAGLVQAGGSLRLSCAASGLTFVFYAMGWYRQAPGKERELVAAISSSGGSTNYADSVKGRFTISRDNAKNTVYLQMNSLKPEDTAVYYCAAETVSWYRYYYRGQGTQVTVSS,high polyreactivity
12,QVQLVESGAGLVQAGGSLRLSCAASGLTIYVNAMGWYGQAPGKERELVATISGSGSTNYADSEKGRFTISRDDAKNTVYLQMNSLKPEDTAVYYCNAGWAQDPSNYWGQGTQVNVSS,low polyreactivity
13,QVQLVESGAGLVQAGGSLRLSCAASGRIFGYYAMGWYRQAPGQERELVATIRGGGSTNYADSVKGRFTISRDNAKNTVYLQMNSLKPEDTAVYVCAKPGAKWRGFDYWGQGTQVTLSS,low polyreactivity
14,QVQLVESGAGLVQAGGSLRLSCAASGRIFPDNTMGWYRQAHGKERELVAVITYSGGSTYYADSVKGRFTISRDNAKNTVYLQMNSLKPEDTAVYYCAADFGFQLKMYYWGQGTQVTVSS,low polyreactivity
15,QVQLVESGAGLVQAGGSLRLSCAASGRIFTFNTMGWYRQAPGKERELVAAITSSSARTYYADSVKGRFTISRYNAKNTVYLQMNSLKPEDTAVYYCATRDWVGSVRMGYWGQGTQVTVSS,high polyreactivity
16,QVQLVESGAGLVQAGGSLRLSCAASGRILHEYAMGWYRQAPGKERELVAAITFSGTSTYYADSVKGRFTISRDNAKNSVYLQMNSLKPEDTAVYYCAADTYGGSRDYWGQGTQVTVSS,low polyreactivity
17,QVQLVESGAGLVQAGGSLRLSCAASGRTFIGNAMGWYRQAPGKERELVAAISSSGGNTYYADSVKGRFTISRDNAKNTVYLQMNSLKPEDTAVYYCAVEVRTFVTYGRREYYWGQGTQVTVSS,high polyreactivity
